Data published in the supplement of paper PMC12338614.
± gives the uncertainty stated by the source.

B1: library; numbered along this chain (parent)
chain: MEVVDPQQLGMFTEGELMSVGMDTFIHRIDSTEVIYQPRRKRAKLIGKYLMGDLLGEGSYGKVKEVLDSETLCRRAVKILKKKKLRRIPNGEANVKKEIQLLRRLRHKNVIQLVDVLYNEEKQKMYMVMEYCVCGMQEMLDSVPEKRFPVCQAHGYFCQLIDGLEYLHSQGIVHKDIKPGNLLLTTGGTLKISDLGVAEALHPFAADDTCRTSQGSPAFQPPEIANGLDTFSGFKVDIWSAGVTLYNITTGLYPFEGDNIYKLFENIGKGSYAIPGDCGPPLSDLLKGMLEYEPAKRFSIRQIRQHSWFRKKHPPAEAPVPIPPSPDTKDRWRSMTVVPYLEDLHGADEDEDLFDIEDDIIYTQDFTVPGQVPEEEASHNGQRRGLPKAVCMNGTEAAQLSTKSRAEGRAPNPARKACSASSKIRRLSACKQQ

Variants of: B1
Test: STK11 functional score (HeLa growth suppression), rescaled enrichment; synonymous median = 1, nonsense median = 0 (normalised score)
Details: with HeLa; variant type: missense
Protocol: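 Deep mutational scan (TileSeq/POPCode codon randomisation) of full-length codon-optimised STK11 cDNA integrated at a Bxb1 landing pad (AAVS1) in HeLa cells. Restoring functional STK11 suppresses HeLa proliferation. Variant frequencies were measured by NGS before and after about two weeks of growth. The error-corrected enrichment log-ratio was rescaled so that synonymous median = 1 and nonsense median = 0, scores above 1 were compressed, and codon-level and three biological replicate scores were combined; error is the bootstrapped standard error. Scale: synonymous median = 1, nonsense median = 0; below 0.5 = damaging.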

STK11 functional score, by site and new letter:
R87: V 1.08 ± 0.43; P 1.24 ± 0.12; A 0.186 ± 0.13; I 1.45 ± 0.17; L 1.18 ± 0.15; K 0.613 ± 0.69; G 1.11 ± 0.083; T 1.48 ± 0.38; S 0.989 ± 0.55; Y 1.6 ± 0.29
A93: G 0.685 ± 0.085; H 1.66 ± 0.18; V 0.101 ± 0.08; L 1.12 ± 0.26; S 0.907 ± 0.2; W 1.63 ± 0.1; R 1.6 ± 0.19; P 1.68 ± 0.42
V77: I 1.4 ± 0.13; W 0.824 ± 0.077; Q 0.597 ± 0.56; R 0.469 ± 0.17; P 0.512 ± 0.16; T 1.57 ± 0.19; L 1.04 ± 0.22; S 0.46 ± 0.12
G91: M 0.64 ± 0.2; R 1.03 ± 0.16; N 1.38 ± 0.089; C 0.164 ± 0.23; L 1.54 ± 0.13; I 1.63 ± 0.22; F 0.906 ± 0.23; Q 1.1 ± 0.13; A 0.99 ± 0.19; H 0.418 ± 0.46; P 1.62 ± 0.19; V 0.481 ± 0.08; K 0.301 ± 0.33; S 0.833 ± 0.096
L102: A 0.777 ± 0.23
L80: Q 1.45 ± 0.09; M 0.45 ± 0.67; Y 1.13 ± 0.23; R 0.408 ± 0.11; V 0.484 ± 0.079; G 0.429 ± 0.082; H 0.878 ± 0.092; E 1.41 ± 0.38; N 0.951 ± 0.37; I 0.964 ± 0.13; W 1.47 ± 0.25; A 1.21 ± 0.22; S 0.479 ± 0.1
N90: K -0.0122 ± 0.3; T 0.558 ± 0.27; L 1 ± 0.12; V 1.17 ± 0.3; G 1.63 ± 0.19; S 1.21 ± 0.14; R 1.01 ± 0.18; W 0.707 ± 0.4; I 0.781 ± 0.2; D 1.23 ± 0.21; A 1.14 ± 0.72; P 1.08 ± 0.3
K97: S 0.724 ± 0.17; D 1.27 ± 0.21; W 0.46 ± 0.082; A 1.47 ± 0.27; P 1.1 ± 0.4; G 0.699 ± 0.38; L 0.76 ± 0.24; V 0.998 ± 0.2; E 1.42 ± 0.45; C 0.937 ± 0.18; Q 0.688 ± 0.72; N 1.21 ± 0.42; T 1.32 ± 0.48
K81: N 1.37 ± 0.34; I 1.19 ± 0.12; P 0.992 ± 0.18; S 0.932 ± 0.1; Q 0.882 ± 0.35; A 1.66 ± 0.18; T 1.35 ± 0.3; R 1.21 ± 0.16; D 1.28 ± 0.56; Y 1.29 ± 0.37; H 1.25 ± 0.083; F 0.987 ± 0.086; L 1.1 ± 0.13; W 0.565 ± 0.079; V 0.987 ± 0.11; G 1.04 ± 0.1
K96: R 1.18 ± 0.16; S 1.11 ± 0.12; H 1.33 ± 0.072; I 1.08 ± 0.17; G 1.31 ± 0.19; T 1.05 ± 0.082; E 0.384 ± 0.32; N 1.14 ± 0.35; L 0.614 ± 0.26; P 0.38 ± 0.12; V 0.667 ± 0.17; W 0.729 ± 0.42; D 1.27 ± 0.25; Q 0.724 ± 0.15; F 0.801 ± 0.17; Y 1.23 ± 0.31
N94: Q 1.2 ± 0.65; A 0.173 ± 0.19; E 0.862 ± 0.32; L 0.89 ± 0.17; G 0.953 ± 0.18; I 1.14 ± 0.21; Y 0.568 ± 0.34; P 1.21 ± 0.64; R 1.37 ± 0.14; H 1.35 ± 0.3; V 0.637 ± 0.13; T 1.27 ± 0.18; F 0.728 ± 0.22; M 0.437 ± 0.077; W 0.162 ± 0.14; S 1.27 ± 0.34; D 1.31 ± 0.14; C 1.1 ± 0.2
E98: I 0.496 ± 0.18; H 0.617 ± 0.08; M 0.133 ± 0.46; G 0.397 ± 0.099; T 0.259 ± 0.093; R 0.172 ± 0.083; V 0.117 ± 0.083; Y 0.182 ± 0.18; A 0.326 ± 0.083; W 0.16 ± 0.15; K 1.12 ± 0.67; Q 0.273 ± 0.089; L 0.433 ± 0.22; S 1.49 ± 0.16
L85: Y 0.234 ± 0.093; P 1.41 ± 0.18; T -0.0975 ± 0.19; W 1.16 ± 0.086; A 1.62 ± 0.21; I 1.56 ± 0.2; G 0.21 ± 0.094; E 1.7 ± 0.4; C 1.1 ± 0.34; V 1.15 ± 0.15; S 1.29 ± 0.17
R86: I 1.24 ± 0.1; G 1.3 ± 0.46; D 1.68 ± 0.19; E 1.6 ± 0.14; W 0.178 ± 0.085; M -0.183 ± 0.08; V 1.4 ± 0.26; L 0.854 ± 0.11; A 1.26 ± 0.17; T 1.69 ± 0.18; P 1.3 ± 0.17
L101: W -0.0513 ± 0.12; R 1.25 ± 0.2
